doi:10.64898/2025.12.15.694443

Biological target: BRAF kinase domain (his6-BRAF^445-723-intein, intein cleaved) (human) (UniProt P15056)
Assay: mass photometry

BRAF kinase domain (his6-BRAF^445-723-intein, intein cleaved) (from UniProt P15056 445-723) (domain or fragment)
stoichiometry N: 2
